# B1: POU domain, class 2, transcription factor 1 (Homo sapiens), P14859-1 (parent)
# chain: MNNPSETSKPSMESGDGNTGTQTNGLDFQKQPVPVGGAISTAQAQAFLGHLHQVQLAGTSLQAAAQSLNVQSKSNEESGDSQQPSQPSQQPSVQAAIPQTQLMLAGGQITGLTLTPAQQQLLLQQAQAQAQLLAAAVQQHSASQQHSAAGATISASAATPMTQIPLSQPIQIAQDLQQLQQLQQQNLNLQQFVLVHPTTNLQPAQFIISQTPQGQQGLLQAQNLLTQLPQQSQANLLQSQPSITLTSQPATPTRTIAATPIQTLPQSQSTPKRIDTPSLEEPSDLEELEQFAKTFKQRRIKLGFTQGDVGLAMGKLYGNDFSQTTISRFEALNLSFKNMCKLKPLLEKWLNDAENLSSDSSLSSPSALNSPGIEGLSRRRKKRTSIETNIRVALEKSFLENQKPTSEEITMIADQLNMEKEVIRVWFCNRRQKEKRINPPSSGGTSSSPIKAIFPSPTSLVATTPSLVTSSAATTLTVSPVLPLTSAAVTNLSVTGTSDTTSNNTATVISTAPPASSAVTSPSLSPSPSASASTSEASSASETSTTQTTSTPLSSPLGTSQVMVTASGLQTAAAAALQGAAQLPANASLAAMAAAAGLNPSLMAPSQFAAGGALLSLNPGTLSGALSPALMSNSTLATIQALASGGSLPITSLDATGNLVFANAGGAPNIVTAPLFLNPQNLSLLTSNPVSLVSAAAASAGNSAPVASLHATSTSAESIQNSLFTVASASGAASTTTTASKAQ
# partner: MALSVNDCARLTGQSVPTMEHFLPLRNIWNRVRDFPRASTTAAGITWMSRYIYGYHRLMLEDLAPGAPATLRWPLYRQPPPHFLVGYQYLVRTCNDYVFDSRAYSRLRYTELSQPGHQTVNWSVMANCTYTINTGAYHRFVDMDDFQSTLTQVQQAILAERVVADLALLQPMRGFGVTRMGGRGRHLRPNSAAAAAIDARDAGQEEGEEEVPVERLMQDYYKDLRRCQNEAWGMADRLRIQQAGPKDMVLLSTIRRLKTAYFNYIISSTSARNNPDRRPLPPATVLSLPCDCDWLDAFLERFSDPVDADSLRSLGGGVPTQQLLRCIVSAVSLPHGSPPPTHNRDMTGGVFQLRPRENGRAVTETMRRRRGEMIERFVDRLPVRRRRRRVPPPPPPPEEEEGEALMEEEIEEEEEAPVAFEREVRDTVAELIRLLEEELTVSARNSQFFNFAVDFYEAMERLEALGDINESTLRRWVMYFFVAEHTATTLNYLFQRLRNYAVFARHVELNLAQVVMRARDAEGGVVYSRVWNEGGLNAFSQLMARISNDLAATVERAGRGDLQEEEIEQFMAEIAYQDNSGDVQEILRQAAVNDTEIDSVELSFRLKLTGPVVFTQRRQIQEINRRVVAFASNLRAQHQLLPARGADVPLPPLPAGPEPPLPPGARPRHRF
# Variants of: B1
# Conditions: with term_ade05 PTP
row,Variant,effect of a mutation on the interaction
1,F427Y,disrupting interaction strength
2,K403Q;R424S,decreasing interaction strength
3,I412F;V425D,decreasing interaction strength
4,R383S,decreasing interaction strength
5,R431S,decreasing interaction strength
6,S377G;K420E,disrupting interaction strength
7,D414G;V425G,disrupting interaction strength
8,V425G,disrupting interaction strength
9,R380W,disrupting interaction strength
10,I373T;V425A,decreasing interaction strength
11,C428Y,disrupting interaction strength
12,T384P,disrupting interaction strength
13,Q415L;C428S,decreasing interaction strength
14,E400G;M418L,decreasing interaction strength
15,E419G;K433E,decreasing interaction strength
16,K403E,decreasing interaction strength
17,T384S,decreasing interaction strength
18,T410S,decreasing interaction strength
19,K382E;L394S,decreasing interaction strength
20,E408G,decreasing interaction strength
21,K382T,decreasing interaction strength
22,K403M,disrupting interaction strength
23,N429D,disrupting interaction strength
